Assay [1] has as its target T1, SCRM KiDoK peptide (Arabidopsis, UniProt Q9LSE2, biotin). Put plainly: BLI. For orientation: BLI is a label-free optical method that tracks binding on a fibre tip over time.
Assay [2] addresses T1, SCRM KiDoK peptide. Put plainly: BLI; in presence of kC9.
The target in assay [3] is T1, SCRM KiDoK peptide. The assay can be described thus: BLI; in presence of kC9; kinetic fit.

B1: MPK6ΔNt (29 to 305) (domain or fragment)
chain: QMPGIENIPATLSHGGRFIQYNIFGNIFEVTAKYKPPIMPIGKGAYGIVCSAMNSETNESVAIKKIANAFDNKIDAKRTLREIKLLRHMDHENIVAIRDIIPPPLRNAFNDVYIAYELMDTDLHQIIRSNQALSEEHCQYFLYQILRGLKYIHSANVLHRDLKPSNLLLNANCDLKICDFGLARVTSESDFMTEYVVTRWYRAPELLLNSSDYTAAIDVWSVGCIFMELMDRKPLFPGRDHVHQLRLLMELIGTPSEEELEFLNENAKRYIRQLPPYPRQSITDKFPTVHPLAIDLIEKMLTFDPRRRITVLDALAHPYLNSLHDISDEPECTIPFNFDFENHALSEEQMKELIYREALAFNPEYQQ
The koff is the rate constant with which the complex falls apart. By Kd is commonly meant the free concentration of one partner at which half of the binding sites on the other are occupied at equilibrium, for simple one-to-one binding. On to B1, for which the koff is 0.0327 s⁻¹ with SCRM KiDoK peptide [1] and 0.0178 s⁻¹ in the assay with SCRM KiDoK peptide [2]. Further, in the assay with SCRM KiDoK peptide [3], the Kd amounted to 1.05 µM.

The values above are taken from PMC11797554 (2024).
